From patent US20090192048A1, “METHOD OF PRODUCING A […] AGENT FOR BINDING A LIGAND” (priority 2005, published 2009)
Ends that are not written are not given here.

Columns and labels:
Type in all cases: physicochemical
[1] = Retention of peptides on Greiner polypropylene V-bottom wells; details: 400V scan
Outline: (§1)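 Peptides (5 μM) and TAMRA dried from 5 mM tris-HCl pH 8.0 in 75% acetonitrile in V-bottom wells; some wells washed 15 min at room temperature with 1 M NaCl in 10 mM tris-HCl pH 8.0. Residue redissolved in 10 mM tris-HCl pH 8.0/50% acetonitrile; retained fluorescence imaged with 532 nm excitation, 580 BP 30 filter.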

[2] = Retention of peptides 2DOS-1 to 2DOS-16 on a hydrophobic surface (polypropylene microtitre plate wells), water wash; details: 400V scan
Outline: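 10 μM peptides, with TAMRA, in 10 mM tris-HCl pH 8.0 in 50% acetonitrile, dried overnight in polypropylene wells, then washed ten times with water. Retained peptide resuspended in the same solvent and fluorescence imaged (532 nm excitation, 580 nm filter). Quantified from 400 V scans.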

[3] = Time-dependent persistence of peptide 2DOS-2 on a polypropylene hydrophobic surface in aqueous buffer
Description: The time-dependent persistence of peptide 2DOS-2 (see above) deposited onto a polypropylene hydrophobic surface in the presence of aqueous buffer was investigated as shown below:
Twelve 100 μl aliquots of 5 μM peptide 2DOS-2 in 5 mM tris-HCl (pH 8.0) in 75% (v/v) aqueous acetonitrile were dispensed to the wells of the top row of a Costar microtitre plate.
The peptide samples were allowed to evaporate to dryness in the dark.
The dried peptide samples in wells 1-10 were incubated with 250 μl of 1 M NaCl in 10 mM tris-HCl (pH 8.0) for the time indicated below at room temperature. All supernatants were pipetted up and down 8 times after incubation and the supernatants were then removed and placed in the wells of the bottom row of the microtitre plate.
The residual surface-bound peptides in all twelve wells were finally resuspended in 50 μl of 10 mM tris-HCl (pH 8.0) in 50% (v/v) aqueous acetonitrile and the microtitre plates were imaged at 200 μm resolution on a Typhoon Trio Plus variable mode imager (Amersham Biosciences) with the green (532 nm) laser and the 580 BP 30 filter at the PMT voltages indicated below and at normal sensitivity. The scan height was set at +3 mm and the sample was pressed during scanning.
The fluorescence images were analysed using ImageQuant TL v2003.03 (Amersham Biosciences).

[4] = Retention of peptides on Costar polypropylene V-bottom wells; details: 400V scan
Outline: as §1

[5] = Retention of peptides in V-bottomed polypropylene wells; details: V-bottom wells, 500V scan
Outline: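 1 μl of 10 μM peptide or TAMRA in 10 mM Tris-HCl pH 8.0/50% acetonitrile dried in the dark in flat- or V-bottomed polypropylene wells. Some wells washed 15 min at RT with 1 M NaCl in 10 mM Tris pH 8.0, others left untreated; all redissolved in 50 μl Tris/acetonitrile and fluorescence imaged at 532 nm excitation, 580 BP 30 filter.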

[6] = Retention of peptides on Greiner polystyrene V-bottom wells; details: 400V scan
Outline: as §1

[7] = washed 15 minutes in 1 M NaCl in 10 mM tris-HCl (pH 8.0)

N-TAMRA-Phe-Asp- Phe-Ala-Phe-Ser- Phe-Lys-Phe-C ({TAMRA}-FDFAFSFKF) [Peptide 2DOS-2]
Percent retention [1]: 78% | Untreated fluorescence ([1]; unwashed): 3,512,023 | Retained fluorescence [1, 7]: 2,731,827 | Initial fluorescence (×10^3) ([2]; 100 μl of 10 μM peptide before drying and washing): 32,492 ×10^3 | Recovered fluorescence (×10^3) ([2]; dried, washed ten times with 250 μl water, resuspended): 15,704 ×10^3 | Percent retention ([3]; 0 minutes in 1 M NaCl/10 mM tris-HCl (pH 8.0)): 90% | Retained fluorescence ([3]; 0 minutes in 1 M NaCl/10 mM tris-HCl (pH 8.0), 300V scan): 904,211 | Stability of retention on polypropylene over time (in words) ([3]; 1 M NaCl/10 mM tris-HCl (pH 8.0), up to 510 minutes): stable for extended periods of time | Percent retention ([3]; 2.5 minutes in 1 M NaCl/10 mM tris-HCl (pH 8.0)): 90% | Retained fluorescence ([3]; 2.5 minutes in 1 M NaCl/10 mM tris-HCl (pH 8.0), 300V scan): 902,082 | Untreated fluorescence (average) ([3]; 300V scan, unwashed wells): 1,000,613 | Percent retention ([3]; 5 minutes in 1 M NaCl/10 mM tris-HCl (pH 8.0)): 85% | Retained fluorescence ([3]; 5 minutes in 1 M NaCl/10 mM tris-HCl (pH 8.0), 300V scan): 847,767 | Percent retention ([3]; 10 minutes in 1 M NaCl/10 mM tris-HCl (pH 8.0)): 79% | Retained fluorescence ([3]; 10 minutes in 1 M NaCl/10 mM tris-HCl (pH 8.0), 300V scan): 792,427 | Percent retention ([3]; 20 minutes in 1 M NaCl/10 mM tris-HCl (pH 8.0)): 75% | Retained fluorescence ([3]; 20 minutes in 1 M NaCl/10 mM tris-HCl (pH 8.0), 300V scan): 749,522 | Percent retention ([3]; 40 minutes in 1 M NaCl/10 mM tris-HCl (pH 8.0)): 77% | Retained fluorescence ([3]; 40 minutes in 1 M NaCl/10 mM tris-HCl (pH 8.0), 300V scan): 769,659 | Percent retention ([3]; 80 minutes in 1 M NaCl/10 mM tris-HCl (pH 8.0)): 74% | Retained fluorescence ([3]; 80 minutes in 1 M NaCl/10 mM tris-HCl (pH 8.0), 300V scan): 740,227 | Percent retention ([3]; 160 minutes in 1 M NaCl/10 mM tris-HCl (pH 8.0)): 74% | Retained fluorescence ([3]; 160 minutes in 1 M NaCl/10 mM tris-HCl (pH 8.0), 300V scan): 739,600 | Percent retention ([3]; 320 minutes in 1 M NaCl/10 mM tris-HCl (pH 8.0)): 81% | Retained fluorescence ([3]; 320 minutes in 1 M NaCl/10 mM tris-HCl (pH 8.0), 300V scan): 805,530 | Percent retention ([3]; 510 minutes in 1 M NaCl/10 mM tris-HCl (pH 8.0)): 80% | Retained fluorescence ([3]; 510 minutes in 1 M NaCl/10 mM tris-HCl (pH 8.0), 300V scan): 803,741 | Percent retention [4]: 94% | Untreated fluorescence ([4]; unwashed): 5,692,134 | Retained fluorescence [4, 7]: 5,349,601 | Percent retention [5]: 86% | Untreated fluorescence ([5]; unwashed): 9,495,183 | Retained fluorescence [5, 7]: 8,127,309 | Percent retention [6]: 64% | Untreated fluorescence ([6]; unwashed): 614,203 | Retained fluorescence [6, 7]: 392,422
